Source: the Human Domainome abundance scans (Beltran et al. 2025)
± gives the uncertainty stated by the source.

B1: GA-binding protein alpha chain, residues 172 to 250; numbered along this chain, Q06546 (parent)
chain: GYRKEQERLGIPYDPIQWSTDQVLHWVVWVMKEFSMTDIDLTTLNISGRELCSLNQEDFFQRVPRGEILWSHLELLRKY

Variants of: B1
Test: abundance fitness (aPCA) (normalised: wild type 0, dead -1); higher = more abundant; growth selection in yeast, the domain comes from the species named
Conditions: Homo sapiens

Abundance fitness: each site, then its substitutions
L54: Q -0.446 ± 0.089, R -0.682 ± 0.046, S -0.693 ± 0.072, V -0.341 ± 0.058, W -0.021 ± 0.049, Y -0.273 ± 0.34
N55: A -0.065 ± 0.041, C -0.124 ± 0.051, D 0.008 ± 0.054, E -0.037 ± 0.078, F -0.712 ± 0.087, G -0.02 ± 0.035, H -0.124 ± 0.063, I -0.244 ± 0.086, K -0.189 ± 0.15, L -0.252 ± 0.03, M -0.291 ± 0.054, P -0.039 ± 0.048, R -0.014 ± 0.033, S 0.012 ± 0.035, T -0.025 ± 0.047, V -0.148 ± 0.04, W -0.782 ± 0.13, Y -0.274 ± 0.089
Q56: A -0.044 ± 0.047, C -0.162 ± 0.068, D -0.262 ± 0.091, E -0.015 ± 0.054, F -0.087 ± 0.097, G -0.245 ± 0.04, H -0.049 ± 0.083, I -0.133 ± 0.088, K -0.004 ± 0.091, L -0.291 ± 0.043, M -0.107 ± 0.066, N -0.455 ± 0.13, P -0.178 ± 0.055, R -0.008 ± 0.037, T -0.132 ± 0.066, V -0.184 ± 0.047, W -0.351 ± 0.065, Y 0.025 ± 0.099
E57: A 0.011 ± 0.047, C -0.058 ± 0.086, D -0.063 ± 0.089, G -0.045 ± 0.042, H -0.023 ± 0.093, I -0.153 ± 0.14, K -0.122 ± 0.089, L -0.076 ± 0.044, M -0.139 ± 0.073, N -0.192 ± 0.099, P -0.098 ± 0.043, Q -0.046 ± 0.063, R -0.082 ± 0.037, S -0.051 ± 0.042, T -0.068 ± 0.061, V -0.081 ± 0.04, W -0.135 ± 0.068, Y 0.009 ± 0.098
D58: A -0.041 ± 0.043, C -0.177 ± 0.063, E -0.095 ± 0.044, G -0.071 ± 0.03, H -0.149 ± 0.1, I -0.022 ± 0.094, K -0.129 ± 0.078, L -0.087 ± 0.044, M -0.004 ± 0.083, N -0.188 ± 0.078, P -0.943 ± 0.19, Q -0.03 ± 0.053, R -0.092 ± 0.037, S 0.003 ± 0.042, T -0.053 ± 0.09, V -0.091 ± 0.044, W -0.19 ± 0.046, Y -0.165 ± 0.085
F59: A -0.813 ± 0.082, C -0.972 ± 0.3, E -0.954 ± 0.15, G -0.888 ± 0.063, H -0.931 ± 0.23, I -0.507 ± 0.12, K -0.815 ± 0.22, L -0.424 ± 0.041, N -0.74 ± 0.19, P -1.02 ± 0.17, R -0.552 ± 0.058, S -0.626 ± 0.068, T -1.02 ± 0.27, V -0.803 ± 0.072, W -0.263 ± 0.051, Y -0.853 ± 0.13
F60: A -0.03 ± 0.046, C -0.088 ± 0.11, E -0.074 ± 0.097, G -0.101 ± 0.038, H -0.118 ± 0.13, I 0.039 ± 0.1, K -0.048 ± 0.092, L 0.033 ± 0.042, M 0.121 ± 0.1, N -0.183 ± 0.17, P -0.527 ± 0.062, Q -0.053 ± 0.071, R 0.003 ± 0.04, S 0 ± 0.051, T -0.044 ± 0.061, V 0.049 ± 0.037, W -0.211 ± 0.051, Y -0.06 ± 0.1
Q61: A -0.014 ± 0.038, C -0.091 ± 0.075, D -0.155 ± 0.088, E -0.041 ± 0.059, G -0.029 ± 0.033, I -0.178 ± 0.11, K -0.016 ± 0.14, L -0.009 ± 0.049, M -0.022 ± 0.06, P -0.777 ± 0.12, R -0.011 ± 0.029, S 0.004 ± 0.045, T 0.014 ± 0.053, V -0.01 ± 0.042, W -0.298 ± 0.043, Y -0.203 ± 0.13
R62: A -0.132 ± 0.16, C -0.143 ± 0.055, D -0.797 ± 0.35, E -0.197 ± 0.083, F -0.192 ± 0.068, G -0.426 ± 0.06, H -0.213 ± 0.16, K -0.014 ± 0.089, L 0.008 ± 0.037, M 0.07 ± 0.06, P -1.06 ± 0.13, Q -0.106 ± 0.074, S -0.156 ± 0.028, T -0.194 ± 0.056, V -0.039 ± 0.08, W -0.314 ± 0.039, Y -0.133 ± 0.13
V63: A -0.075 ± 0.044, C -0.012 ± 0.074, D -0.667 ± 0.18, E -0.563 ± 0.045, F 0.018 ± 0.057, G -0.218 ± 0.027, H -0.886 ± 0.4, I -0.077 ± 0.068, K -0.864 ± 0.22, L -0.073 ± 0.029, M -0.113 ± 0.073, N -0.384 ± 0.12, P -0.667 ± 0.12, Q -0.235 ± 0.068, R -1.06 ± 0.11, T -0.172 ± 0.072, W -0.042 ± 0.041, Y -0.221 ± 0.1
P64: A -0.295 ± 0.054, C -0.288 ± 0.098, D -0.738 ± 0.27, E -0.23 ± 0.064
